# In patent US20250147051A1, “METHOD FOR DETECTING A TAU PROTEIN IN A SALIVA SAMPLE” (GTINVENT LIMITED, priority 2022, published 2025):
# “Also recorded” adds a separate entry of the source.
# B1: S1G2: anti-tau binding molecule defined by its CDRs; scAb sequence SEQ ID NO: 81 (protein)
# scFv: QVQLQESGPSLVKPSQTLSLTCTVSGFSLTSNSVGWVRQAPGKAPEWVAGIDTDGEEGYNPALNSRLSITRDTSKSQVSLSLSSVTSEDTAVYYCGRSYRADGLAYGYVQAIDYWGPGLLVTVSSEGKSSGASGESKVDDQAVVTQPSSVSGSLGQRVSITCSGSFIGISSVGWFQQLPGSGLRTIIVASDGRPSGVPDRFSMSKSGNTATLTISSLQAEDEADYFCGSSDRTPYTGVFGSGTRLTVLG
# modifications: S1G2 amino acid sequence
# B2: CB7: anti-tau clone, SEQ ID NO: 364 (protein)
# scFv: QVQLQESGPSLVKPSQTLSLTCTVSGFSLTNYRVGWVRQAPGKALEWVSNIRSGGTTWYNPALKSRLSITADTSKSQVSLSLSSVTTEDTAVYYCARDSSGDLYAYDYWGPGLLVTVSSEGKSSGASGESKVDDQAVLTQPSSVSRSLGQSVSMTCSGSSSNVGYGNYMAWFQQVPGSAPKLLIYGATSRASGVPDRFSGSRSGNTATLTISSLQAEDEADYYCASYDSTSGGVFGSGTRLTVLG
# modifications: CB7 amino acid sequence
# B3: CA4: anti-tau clone, SEQ ID NO: 368 (protein)
# chain: QVQLQESGPSLVKPSQTLSLTCTVSGFSLTSYSVYWVRQAPGQALEWISIMYASGRVDYNPALKSRLSITRDTSKSQFSLSLSSVTTEDTAVYYCTRGIENWGPGLLVTVSSEGKSSGASGESKVDDDIQVTQSPSSLSASLTERVSITCRTSQSVNNYLSWYQQKPGQAPKLLIYYATRLYTDVPSRFSGSGSGTDYTLTITSLEADDTATYYCLQYDSTPLAFGGGTNVEIK
# modifications: CA4 amino acid sequence
# Tests used:
# dGAE aggregates = target: T1, dGAE aggregates (Homo sapiens, UniProt P10636); assay: Sandwich ELISA LoD for SDS Triton X-100 treated dGAE aggregates; type: binding; details: label = detection scAb
# T1 construct: host or cells: aggregated in house: 100 μM dGAE with DTT, 700 rpm, 37 °C, 24 h
# T1 sequence (P10636 614-708): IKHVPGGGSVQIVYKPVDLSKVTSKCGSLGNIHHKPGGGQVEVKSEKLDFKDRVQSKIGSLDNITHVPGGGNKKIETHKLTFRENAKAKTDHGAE
# Description: For aggregation, 1000 μL 100 μM dGAE+10 μL 10 mM DTT was added to a ‘LoBind’ microfuge tubes and agitated at 700 RPM/37° C. for 24 hours. Resulting sample centrifuged at 17,000×g/4° C. for 60 min and supernatant discarded to remove left over monomer. Pellet resuspended in half the original volume for future experiments and hereafter referred to as ‘aggregates’. 1 μl of aggregates was added to 1 ml of PBS and SDS was added to a final concentration of 1% (w/v). This was left to incubate on lab bench for 1 h with gentle agitation every 15 minutes. In order to neutralise the SDS effect on ELISA, Triton X-100 added to a final concentration of 3% (v/v) and mixed gently by pipetting to prevent any bubble formation. 200 μl added of this mix was to the first well of an ELISA plate coated with 1 μg/ml S1D12 mAb and blocked with 2% MPBS. Similarly aggregates treated with only SDS or Triton X-100, untreated aggregates, dGAE monomers treated with only SDS or SDS+Titon X-100 were also added to designated wells as controls. All samples were then double diluted across the plate in final volumes of 100 μl. The final column was left with no protein to act as a blank. This was allowed to stand at room temperature for 1 hour followed by the addition of detection scAb-S1G2 at 10 μg/ml. Anti-HuCk HRP labelled secondary antibody was added as described previously and ELISA data generated was represented using the graph below. In addition, limits of detection (LoD) of various core binding antibody pairing for SDS Triton X-100 treated dGAE aggregates were calculated using the above describe ELISA method and substituting capture mAbs and detection scAbs as shown in Table 30.
# tau protein = assay: Capture ELISA of transgenic mouse brain lysates; details: S1D12 mAb capture, label = detection scAb, WT, L1, L66+/- and L66+/+
# Description: Mouse brain lysates were prepared from wildtype, Line 1, Line 66+/+ and Line 66+/− (Melis et al., 2015, all surplus from Charles River, part of study R0144). All animals were female, 7-8 months old except Line 66+/+ which were 5 months old. […] The L1 cDNA construct (FIG. 23) contains human tau cDNA coding for amino acid residues 296-390 with a signal sequence and related sequences in a murine Thy-1 expression cassette. For brain lysate preparation, half brains were sectioned into four and the individual sections were homogenised in 400 μl of ice cold RIPA buffer (Cell signalling Technology) containing protease and phosphatase inhibitors. Total protein concentrations for individual samples were established by BCA-assay and each sample was subsequently diluted to 1 mg/ml for future experiments.
# For capture ELISA, 100 μL S1D12 capture mAb was used to coat a nunc 96 well Maxisorp plate at 1 μg/ml and incubated for 1 hour at 37° C. Plate was washed as previously and then blocked for 1 hour at 37° C. in 2% MPBS. Brain homogenate samples (50 ng total protein) from each mouse type were added to the first wells and double diluted across the plate in PBS. These samples were left to incubate at RT for 1 hour. Various detection scAbs encompassing epitopes of interest were then added to the plate at 1 μg/ml and incubated for 1 h at RT. Secondary antibody used was anti-HuCk HRP and the assays were developed as described previously. Using S1D12 mAb capture and two separate scAb detectors, S-1G2 (FIG. 24A) and C-B7 (FIG. 24B), it was possible to differentiate between L1 and L66 samples and the wild type.
# tau [1] = assay: Western blot of mouse brain homogenates (WT, L66+/+, L1+/+); details: 20 μg brain homogenate protein, 5-month-old WT, L1+/+ mice
# Description: Protein equivalent to 20 μg from each brain extract was separated using 4-20% bis-tris gels and run in 1×MES buffer. […] A clear band is visible in the lanes containing L66^+/+ samples, but no other bands are detectable (WT or L1^+/+). […] Once again, a band having relative mobility of 65 kDa is visible in the L66 sample with no other reactive bands present.
# This band most likely corresponds to endogenous mouse tau which is of a similar size. In the L66^+/+ samples, a second band running at approximately 68 kDa is also detected. The presence of numerous other bands indicates proteolytic truncation of tau within brain homogenates.
# dGA = dGA (Homo sapiens, UniProt P10636); assay: Biacore X100 SPR binding kinetics of anti-tau scAbs (scAb captured via HuCk), analyte dGA; details: lead scAbs
# Sequence of dGA (P10636 614-707): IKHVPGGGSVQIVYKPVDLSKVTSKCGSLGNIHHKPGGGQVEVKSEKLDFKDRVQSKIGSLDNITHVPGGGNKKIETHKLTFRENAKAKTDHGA
# Description: Surface plasmon resonance (SPR) is widely regarded as the gold standard for real time measurement of protein-protein interactions such as antibody binding. All SPR experiments were carried out using a Biacore X100 machine and HBS EP+ running buffer (GE Healthcare). A ‘capture’ method was followed for affinity measurements, where an anti-human constant kappa chain (HuCk) antibody was conjugated to the surface of a CM5 sensor chip using an amine coupling kit and scAb molecules were immobilised via their HuCk domain. Amine coupling is a very common approach for immobilising the ligand to the chip surface. The chip surface has a dextran matrix derivatised with carboxyl groups, which after activation with N-hydroxysuccinimide (NHS) and 1-ethyl-3-(3-dimethylaminopropyl) carbodiimide (EDC), form reactive succinimide esters which allows the covalent capturing of the ligand via any available primary amine groups (e.g. Lysine) on the ligand (in this case anti-HuCk antibody). The capture antibody was diluted 1/100 in 10 mM Sodium acetate buffer pH 5.0 and passed over the activated chip surface for a period of at least 420 s. Final ligand immobilisation levels over 12,000 RU were deemed to be satisfactory.
# Following immobilisation, the level of each scAb to be captured was identified using the standard SPR equation with a theoretical RMax of 100 RU. Analyte MW refers to the molecular weight of hT40 or dGA/dGAE molecules, while ligand MW refers to the molecular weight of the scAbs tested. RLis the desired capture level and S refers to the stoichiometric ratio:
# The scAb to be tested was added only to flow cell 2 so that flow cell 1 could act as a control to subtract any interaction with the analyte and the chip surface. Both single and multi-cycle runs were utilised using wizards developed in the Biacore X100 control software which are both accepted methods of kinetic analysis (Karlsson, R., et al. Analyzing a kinetic titration series using affinity biosensors (2006) Analytical Biochemistry 349:136-47). The multi-cycle protocol was as follows-Three start-up cycles composed of an initial capture, to the desired level, of the scAb to be tested was performed followed by a 30 s injection of glycine buffer pH 2.0 after each cycle to regenerate the chip surface. The regeneration step removed any captured scAb whilst leaving the capture antibody intact and able to repeat the capture for the next cycle. Following three start-up cycles increasing concentrations (0.15625 nM-100 nM) of the target to be tested were added to the chip surface after the desired scAb capture. The target was added for a 120 s association period and 420 s dissociation period followed by another regeneration, 30 s injection of glycine buffer pH 2.0 in between each cycle.
# The single cycle kinetics protocol was similar and utilised the same level of scAb capture. Three start-up cycles were used followed by 5 increasing concentrations of the analyte (6.25 nM-100 nM) for an association period of 120 s followed by a dissociation period of 420 s for each concentration. In single cycle kinetics the regeneration step was performed only after the final analyte concentration was added. Binding responses were analysed in Biacore X100 evaluation software and data fitted to a 1:1 binding model to obtain kinetic and affinity characterisation.
# tau [2] = assay: Capture ELISA of transgenic mouse plasma; details: Line66 transgenic model; detection scAb with S1D12 mAb capture
# Description: Plasma samples from WT, L1, L66+/− and L66+/+ of various ages (1.5-9 months) were taken as described. Mice were terminally anaesthetized using an overdose of sodium pentobarbital and blood was collected through cardiac puncture through a Plastipak syringe pre-rinsed with heparinised saline heparin (10 U/ml) (Heparin sodium salt; Sigma-Aldrich) and transferred into a plastic vial containing lithium heparin anticoagulant (Sarstedt Ltd.) Blood samples, kept on ice for no more than 30 minutes, were centrifuged to obtain plasma at 2000×g for 5 minutes at 6° C. Plasma samples were stored at −20° C.
# For mouse plasma capture ELISA, 100 μL capture mAb was coated to the bottom of a black nunc 96 well ‘maxisorp’ plate at 2.5 μg/ml and incubated for 1 hour at 37° C. After washing and blocking as normal, several known standard solutions were set up in triplicate starting at 20 ng/ml of the desired protein before double diluted in the remaining wells. Mouse samples were added to wells in duplicate with a blank in between each sample group. Line1 plasma was diluted 1:10 before addition to plate to account for its high concentration while other samples were diluted 1:2 to account for potential matrix effects. […] The ELISA was developed using SuperSignal ELISA Femto Substrate (Thermo Scientific) and total luminescence was read on Clariostar Plus plate reader (BMG Labtech). […]
# plasma tau = assay: 3-step Simoa assays of human plasma (AD/MCI vs healthy control / CU); details: label = capture antibody; CA4 with BT2 detector; BT2 or HT7 with S1D12 or S1G2 detectors
# Description: Human plasma samples were sourced from the commercial supplier Logical Biological Ltd. Healthy control (HC, n=12) and samples from individuals with a diagnosis of AD or mild cognitive impairment (AD/MCI, n=42) were aliquoted into low bind microfuge tubes and stored at −80° C.
# The Simoa® experiments used for plasma screening utilised a 3-step protocol optimised for use with plasma samples. A standard curve (540 pg/ml−0.7 pg/ml) was created by spiking recombinant hTau40 into Tau 2.0 diluent and triple diluting. Plasma samples were diluted 1:100 and added in duplicate to the Simoa® plate followed by the addition of respective capture beads. Different antibody pairings used for plasma screening is explained in Table 28. In general, the capture antibody coated beads are mixed with diluted plasma samples, added to the plates and incubated for 30 min at 30° C. with shaking. Following the incubation, the plates were washed using the Simoa® plate washer before the addition of 0.2 μg/ml biotinylated detector antibody which was left to incubate as before for 10 min. The plates were then washed again before the addition of SBG and a final 10 min incubation. After the final incubation and wash steps the plates were transferred to the Simoa® reader and plasma tau concentrations generated against a 4-parameter fit curve. […]
molecule,measurement,setting,value
B1,"LoD, 423 mAb capture, +SDS Triton dGAE agg.",dGAE aggregates,30 ng/mL
same,"LoD, S1D12 mAb capture, +SDS Triton dGAE agg.",dGAE aggregates,approximately 2 ng/ml
same,"LoD, direct immobilisation of dGAE aggregates, +SDS Triton dGAE agg.",dGAE aggregates,16 ng/mL
same,detection of tau in mouse brain homogenate,tau protein,tau protein was detected in 50 μg of total brain protein in all four different sample types
same,Western blot reactivity,tau [1],"A band is detected in each sample (WT, L66^+/+ and L1^+/+); also recorded: able to detect the pathologic 10-kDa tau fragment"
same,ka,dGA; Table 24,783000 M⁻¹ s⁻¹
same,dissociation rate constant (kd),"dGA; Table 24, dissociation rate",0.0003499 s⁻¹
B2,cross-reaction with endogenous mouse tau protein,tau [2],does not cross react with endogenous mouse tau protein
same,detection of tau in mouse brain homogenate,tau protein; listed as C-B7 scAb,hT40 tau was specifically detected in L66 samples
same,detection of tau in mouse brain homogenate,tau protein; listed as CB7 scAb,can specifically detect human tau in Line66 homozygous and heterozygous samples
same,Western blot reactivity,tau [1],specificity for human tau
B3,detection of tau in human plasma,plasma tau,high levels of Core/Proline tau is detected in cognitively unimpaired (CU) samples only
